Experimental data published in patent US20250195685A1 (CAPSTAN THERAPEUTICS, published 2025).
Residue numbers refer to the chain shown, from its start.

How the values were obtained:
[1] = biological target: T1, human CD8αα homodimer, recombinant protein (Acro Biosystems) (human, UniProt P01732 22-182); assay: BLI kinetics, Fab, 37 °C
T1 construct: also called CD8αα antigen; biotinylated CD8α recombinant protein (CDA-H82E3)
Method: (§1) Biolayer interferometry kinetic assays were performed using a GatorBio Gator Plus BLI system. Kinetic buffer containing PBS plus 0.1% Tween 20 and 0.2% BSA was used for calculating the baseline. To measure the binding kinetics of anti-CD8α antibody fragment (Fab), streptavidin-immobilized SA-XT sensors (#160029, Gator Bio) were prehydrated in the kinetic buffer and loaded with […] biotinylated CD8α recombinant protein (CDA-H82E3, Acro Biosystems) at a spin speed of 400 rpm to a threshold response of 10 nm. The sensors were then incubated in the kinetic buffer for 300 s to acquire a baseline measurement prior to each association. […] The antigen-loaded sensors were incubated in the diluted solutions to capture Fab fragments for 300 s to record the association phase. Sensors were finally incubated in the kinetic buffer for 900 s to record the dissociation phase. The spin speed for all steps except the antigen loading step was 1000 rpm. The temperature of the performed assays was either 30° C. or 37° C. during the association and dissociation phases. Sensor data were baseline subtracted, and global curve fitting of the kinetic data from six different analyte concentrations at a 1:1 monovalent binding model was performed using GatorOne software (version v2.10) to determine kinetic rate constants (kₒₙ and koff) and equilibrium dissociation constants (KD) of the analyzed antibodies.
(§2) The binding kinetics of CBD1033 Fab and its parental CBD1017ch Fab against human CD8αα homodimer, human CD8αβ heterodimer, and cynomolgus macaque CD8ααhomodimer were assessed following the same method in BLI evaluation of humanized Fab variants. For evaluating the binding kinetics against cynomolgus macaque CD8αβ heterodimer protein, the antigen protein was directly coupled onto amine-reactive biosensor tips (Gator Bio) following the manufacturer protocol. Briefly, the sensors were activated for 300 s with a mixture of 1-ethyl-3-(3-dimethylaminopropyl)carbodiimide hydrochloride (EDC) (ThermoFisher Scientific) and 10 mM N-Hydroxysulfosuccinimide sodium salt (sulfo-NHS) (Sigma-Aldrich) in water.

[2] = biological target: human CD8αβ heterodimer, recombinant protein (human, UniProt P01732 22-182; P10966 22-170, limits assumed); assay: BLI kinetics, Fab, 37 °C
Chain of human CD8αβ heterodimer, recombinant protein (P01732 22-182 limits assumed, chain 1 of 2): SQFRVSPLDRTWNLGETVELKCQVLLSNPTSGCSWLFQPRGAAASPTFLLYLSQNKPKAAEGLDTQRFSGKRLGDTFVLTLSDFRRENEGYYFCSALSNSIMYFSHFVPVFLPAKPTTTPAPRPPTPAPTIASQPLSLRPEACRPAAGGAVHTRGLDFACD
Chain of human CD8αβ heterodimer, recombinant protein (P10966 22-170 limits assumed, chain 2 of 2): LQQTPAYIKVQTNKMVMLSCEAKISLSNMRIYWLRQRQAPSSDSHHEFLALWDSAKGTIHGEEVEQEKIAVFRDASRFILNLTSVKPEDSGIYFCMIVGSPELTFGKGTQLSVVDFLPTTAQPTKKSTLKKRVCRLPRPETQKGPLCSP
Method: as §1, §2

[3] = biological target: T2, cynomolgus macaque CD8αα homodimer, recombinant protein (cynomolgus macaque); assay: BLI kinetics, Fab, 37 °C as printed in the table
T2 construct: also called cynomolgus CD8αα homodimer
Method: as §1, §2

[4] = biological target: T3, cynomolgus macaque CD8αβ heterodimer, recombinant protein (cynomolgus macaque); assay: BLI kinetics, Fab, antigen amine-coupled to the sensor, 30 °C
T3 construct: In BLI coupled directly to amine-reactive sensor tips; also called cynomolgus CD8αβ heterodimer
Method: The binding kinetics of CBD1033 Fab and its parental CBD1017ch Fab against human CD8αα homodimer, human CD8αβ heterodimer, and cynomolgus macaque CD8ααhomodimer were assessed following the same method in BLI evaluation of humanized Fab variants. For evaluating the binding kinetics against cynomolgus macaque CD8αβ heterodimer protein, the antigen protein was directly coupled onto amine-reactive biosensor tips (Gator Bio) following the manufacturer protocol. Briefly, the sensors were activated for 300 s with a mixture of 1-ethyl-3-(3-dimethylaminopropyl)carbodiimide hydrochloride (EDC) (ThermoFisher Scientific) and 10 mM N-Hydroxysulfosuccinimide sodium salt (sulfo-NHS) (Sigma-Aldrich) in water. The cynomolgus macaque CD8αβ protein diluted to […] in 10 mM sodium acetate buffer, pH 6.0, was allowed to be covalently captured for 300 s to an approximate threshold of 5 nm, and the sensors were subsequently deactivated with 1 M ethanolamine (ETA) (Sigma-Aldrich) solution, pH 8.5, for 300 s. The sensors were then rinsed in the kinetic buffer for 600 s. The rinse step was repeated for an additional 120 s for baseline calculation prior to the measurements of the binding kinetics. The antibody fragment was diluted into kinetic buffer via 3-fold dilution at concentrations ranging from 1000 nM to 1.37 nM. As above, the antigen-captured sensors were incubated in the diluted solutions to capture the Fab fragments for 1200 s to record the association phase. Sensors were subsequently incubated in the kinetic buffer for 1200 s to record the dissociation phase. The shaking speed for all steps was 1000 rpm and the temperature of the performed assays were at 30° C. The kinetic parameters were determined with 1:1 monovalent (Langmuir) binding model using the previous method.

[5] = biological target: T1, human CD8αα homodimer, recombinant …; assay: BLI kinetics, F(ab) on biotinylated CD8α (SA-XT sensor), 1:1 fit, 30 °C
Method: as §1

[6] = biological target: T1, human CD8αα homodimer, recombinant …; assay: BLI kinetics, F(ab) on biotinylated CD8α (SA-XT sensor), 1:1 fit, 37 °C [CONT'ED]
Method: as §1

[7] = biological target: T2, cynomolgus macaque CD8αα homodimer, …; assay: BLI kinetic sensorgram, 1:1 global fit (legend: 30 °C; FIG. 2I prints 37 °C for the same constants)
Method: as §1, §2

insulin (Sigma) = biological target: T4, insulin (Sigma); assay: polyreactive ELISA, insulin coated, 100 nM antibody
T4 construct: Antigen of the polyreactivity ELISA
T4 sequence (P01308 25-54, chain 1 of 2): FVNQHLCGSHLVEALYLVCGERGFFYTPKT
T4 sequence (P01308 90-110, chain 2 of 2): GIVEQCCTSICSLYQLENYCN
Method: Insulin ([…]; Sigma) and dsDNA ([…]; Sigma) were coated onto 96-well high-binding ELISA microplates (Corning) at 50 μL per well overnight at 4° C. Plates were blocked with PBS with 0.5% BSA (blocking buffer) at room temperature (RT) for 1 h, followed by three washes with PBST (PBS with 0.1% Tween-20). 50 μL of 100 nM antibody in blocking buffer was added to each well and incubated at RT for 1 h, followed by six washes with 100 μL of PBS. 50 μL of diluted anti-human IgG-horseradish peroxidase (HRP) conjugate (Jackson ImmunoResearch) was added to the wells and incubated for 1 h followed by another six washes. Finally, 50 μL of 3, 3′, 5, 5′-Tetramethylbenzidine (TMB) substrate (Fisher Scientific) was added to each well to develop the detection signal. The reactions were stopped by adding 50 μL of 2 M sulfuric acid to each well. The absorbance was measured at 450 nm using a multimode microplate reader. Ustekinumab as the control antibody with low polyreactivity and bococizumab as a highly polyreactive antibody control were also included in the polyreactive ELISA assessment.
The first assessment tested for low non-specific binding to dsDNA and insulin by ELISA. […] Thus, by this standard, none of the tested antibodies were polyreactive.

[8] = biological target: T1, human CD8αα homodimer, recombinant …; assay: BLI steady state, whole hIgG1-LALAPA antibody on CD8α-His (Ni-NTA sensor), 30 °C
Method: To assess affinity of whole antibodies, steady state analysis was used as the bivalent nature of both whole antibody and CD8α complicates kinetic analysis. 50 nM CD8α-His (that is, CD8α with a C-terminal oligohistidine tag; Acro) was immobilized on Ni-NTA sensor probes. Binding was analyzed with a three-fold antibody dilutions series: 60 nM, 20 nM, 6.67 nM, 2.22 nM, 0.74 nM, and 0.25 nM. The antigen-loaded sensors were incubated in the diluted solutions to capture the whole IgG antibody for 300 s to record the association phase. Sensors were incubated in the kinetic buffer for 900 s to record the dissociation phase. The spin speed was 1000 rpm for all steps except the antigen loading step which was 400 rpm to control density of the antigen. The temperature of the performed assays was at 30° C. during the association and dissociation phases. The sensor data were baseline subtracted and further analyzed in GatorOne software (version 2.10) to determine the equilibrium dissociation constants (KD) of the antibodies by fitting the signals of the steady states to the 1:1 binding model.

[9] = biological target: T5, human CD8 on cells (CD8-overexpressing HEK293T cells, SupT1, HPB-ALL, human T cells, transfected HEK293 of … (human, UniProt P01732 22-235)); assay: flow cytometry on CD8-overexpressing HEK293T cells, non-linear fit of normalized gMFI
T5 construct: whole, on cells; also called cell surface CD8
T5 sequence (P01732 22-235): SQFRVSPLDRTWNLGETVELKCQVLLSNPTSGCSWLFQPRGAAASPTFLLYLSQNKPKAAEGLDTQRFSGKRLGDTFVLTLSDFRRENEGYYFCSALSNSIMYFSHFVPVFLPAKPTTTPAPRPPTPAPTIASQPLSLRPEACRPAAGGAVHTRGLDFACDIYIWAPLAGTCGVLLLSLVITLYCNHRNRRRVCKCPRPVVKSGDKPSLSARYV
Method: To obtain the results shown in FIG. 3A, that determined EC₅₀ values for antigen-specific binding, CD8-overexpressing HEK293T cells were dissociated in Versine solution (PBS buffer at pH 7.4 supplemented with 0.5 mM EDTA), and 2×10⁵ total cells were transferred to a V-bottom 96 well culture plate (Corning). Cells were washed twice with Cell Staining buffer (#420201, Biolegend). Each anti-CD8α antibody with human IgG1 isotype and Fc-silencing mutations L234A, L235A and P329A was diluted in four-fold antibody titration series from 100 μg/mL to 6.1 ng/ml into Cell Staining buffer. eFluor 780 Fixable Viability dye (eBioscience) was also included during antibody solutions at a 1:4000 dilution. Cells were stained with each diluted antibody solution for 30 minutes on ice. Cells were then washed three times with Cell Staining buffer and primary antibody binding was detected by staining with anti-human Fc BV421 conjugate antibody (#410704, Biolegend) at 1:100 dilution for 30 minutes on ice. After staining with the secondary detection antibody, cells were washed three times with Cell Staining buffer, fixed in FluoroFix buffer (Biolegend) and kept at 4° C. in the dark until analysis. Flow cytometry analysis on each sample was performed on an Agilent NovoCyte flow cytometer. Flow cytometry data was analyzed by Flowjo 10 (Becton, Dickinson & Company) to measure the geometric median fluorescence intensity (gMFI) of the on-cell binding from each antibody. The gMFI values were normalized with the gMFI measured in the sample stained with only the secondary detection antibody and plotted against the concentration of the added antibodies. The binding curves were constructed using the Graphpad Prism software, and EC₅₀ values were determined by non-linear curve fitting.

[10] = biological target: T6, custom recombinant human CD8α mouse IgG2a Fc fusion protein (human; mouse, UniProt P01732 22-182, limits assumed); assay: BLI kinetics, biotin-conjugated F(ab') on SA-XT sensor, HuCD8a mouse Fc fusion as analyte, 37 °C
T6 construct: Custom protein; also called human CD8α mouse Fc fusion protein; not shown: mouse IgG2a Fc
T6 sequence (P01732 22-182 limits assumed): as the sequence (P01732 22-182 limits assumed, chain 1 of 2) above
Method: The global fitting was performed with a 1:1 fitting model using GatorOne software as described below.
To measure the binding kinetics of the biotin-conjugated Fab molecule, streptavidin-immobilized SA-XT sensors (#160029, Gator Bio) were prehydrated in the kinetic buffer and loaded with […] biotinylated Fab sample CBD1033.37 or CBD1033.24 to a threshold response of 10 nm. […] The binder-loaded sensors were incubated in the diluted solutions to capture the CD8α protein for 1200 s to record the association phase. Sensors were finally incubated in the kinetic buffer for another 1200 s to record the dissociation phase. The spin speed for all steps was 1000 rpm. The temperature of the performed assays were at 37° C. during the association and dissociation. The sensor data were baseline subtracted, and global curve fitting of the kinetic data from six different analyte concentrations at a 1:1 monovalent binding model was performed using the GatorOne software (version v2.10) to determine the kinetic rate constants (kₒₙ and koff) and equilibrium dissociation constants (KD) of the analyzed binder.

T1 sequence (P01732 22-182 limits assumed): as the sequence (P01732 22-182 limits assumed, chain 1 of 2) above

B1: CBD1017ch Fab (chimeric CT8 Fab) (Fab, V domains shown)
VH: EVQLQQSGPELVKPGASVKISCKASRYTFTDYNLHWVKLSHEKSLEWIGFIYPYNGGTGYNQKFKNKAKLTVDYSSSTAYMELRSLTSVDAAVYYCARDHRYNEGVSFDYWGQGTTLTVSS
VL: NIVLTQSPASLAVSLGQRATISCRASESVDGFGNSFMNWYQQKPGQSPKLLIYLASNLESGVPARFSGSGSRTDFTLTIDPVEADDAATYYCQQNNEDPYTFGGGTKLEIK
notes: Chimeric: variable regions of mouse CT8 (clone RPA-T8) with human constant parts; also called parental CBD1017ch Fab
Work on B1 yielded a Kd [1] of 1.08 nM, a koff [1] of 7.53e-05 s⁻¹ and a kon [1] of 69500 M⁻¹ s⁻¹. For the same binder, the Kd [2] was 5.75 nM, the koff [2] was 0.000179 s⁻¹ and the kon [2] was 31200 M⁻¹ s⁻¹. It also gave a Kd [3] of 2.26 nM, a koff [3] of 6.93e-05 s⁻¹ and a kon [3] of 30700 M⁻¹ s⁻¹. For the same binder, the Kd [4] was 24.8 nM, the koff [4] was 0.000503 s⁻¹ and the kon [4] was 20300 M⁻¹ s⁻¹. For the same binder, the Kd [5] was 0.814 nM, the koff [5] was 5.67e-05 s⁻¹ and the kon [5] was 69700 M⁻¹ s⁻¹. The Kd [6] was 1.08 nM, the koff [6] was 7.53e-05 s⁻¹ and the kon [6] was 69500 M⁻¹ s⁻¹. It also gave a Kd [7] of 2.26 nM, a koff [7] of 6.93e-05 s⁻¹ and a kon [7] of 30700 M⁻¹ s⁻¹.

B2: CBD1032 whole antibody, Fc-silenced human IgG1 (LALAPA) (antibody, V domains shown)
VH: QVQLVQSGAEVKKPGASVKVSCKASRYTFTDYNLHWVRQAPGQGLEWMGFIYPYNGGTGYAQKFQGRVTMTRDTSTSTVYMELSSLRSEDTAVYYCARDHRYNEGVSFDYWGQGTTVTVSS
VL: DIQMTQSPSSLSASVGDRVTITCRASESVDGFGNSFMNWYQQKPGKAPKLLIYLASNLESGVPSRFSGSGSGTDFTLTISSLQPEDFATYYCQQNNEDPYTFGQGTKLEIKR
B2 was tested, and the “polyreactivity ELISA score” value (insulin (Sigma)) was 1, the Kd [8] was 1.4 nM and the EC50 [9] was 2.35 nM.

B3: maleimide-PEG-biotin conjugated CBD1033.24 F(ab') (IgG4-derived) (Fab, V domains shown)
VH: B2 VH with R72V, V79A
VL: B2 VL with M4L, V19A, L82V
modifications: maleimide-PEG11-biotin on CH C227 (sequential numbering, corresponding to C239 in Kabat numbering)
notes: Loaded on streptavidin sensors through the biotin; also called biotinylated Fab sample CBD1033.24
B3 showed a Kd [10] of 4.01 nM, a koff [10] of 0.00013 s⁻¹ and a kon [10] of 32400 M⁻¹ s⁻¹.

B4: CBD1039 whole antibody, Fc-silenced human IgG1 (LALAPA) (antibody, V domains shown)
VH: B2 VH with V20I, M48I, V68A, M70L, R72V, T74Y, V79A, V117L
VL: B2 VL with M4L, V19A, L82V
B4 was tested, and the “polyreactivity ELISA score” value (insulin (Sigma)) was 1, the Kd [8] was 1.76 nM and the EC50 [9] was 4.39 nM.

B5: CBD1034 whole antibody, Fc-silenced human IgG1 (LALAPA) (antibody, V domains shown)
VH: B2 VH with R72V, V79A
VL: B2 VL with M4L, V19A, G72R, L82V
For B5, the “polyreactivity ELISA score” value (insulin (Sigma)) was 1, the Kd [8] was 4.63 nM and the EC50 [9] was 2.71 nM.

B6: CBD1035 whole antibody, Fc-silenced human IgG1 (LALAPA) (antibody, V domains shown)
VH: B2 VH with V20I, M48I, V68A, M70L, R72V, V79A, V117L
VL: B2 VL with M4L, V19A, L82V
In the case of B6, the “polyreactivity ELISA score” value (insulin (Sigma)) is reported as 1, the Kd [8] is reported as 2.66 nM and the EC50 [9] is reported as 1.75 nM.
